Experimental data published in the supplement of paper PMC10724198.
± gives the standard deviation of the averaged measurements.

Tested on: Saccharomyces cerevisiae
Assay: protein stability index of tFT-peptide fusion (C-terminal peptide) (PSI (0-1 scale)); higher = more stable (slower turnover)
Conditions: temperature: 30 C
Procedure: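 MPS profiling in S. cerevisiae of the yeast C-terminome library: the last 12 aa of each annotated ORF are fused to the C-terminus of a sfGFP-mCherry timer, after a GGGS linker. Cells are FACS-sorted into 8 mCherry/sfGFP bins and deep-sequenced. PSI runs from 0 (unstable) to 1 (stable); wild type and das1Δ backgrounds, two technical replicates each.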

[1] = genetic background: das1 deletion

Sequence	protein stability index [1]	protein stability index (genetic background: wild type)
TVHQLRDRGFDI [ENV9 C-terminal 12 aa]	0.73 ± 0.0077	0.717 ± 0.014
TVIALLVGWIYY [SCS22 C-terminal 12 aa]	0.241 ± 0.01	0.255 ± 0.0075
TVSNETKEARET [SPT14 C-terminal 12 aa]	0.6843 ± 0.0053	0.6715 ± 0.0044
TWFKYFKWLDMF [MRX3 C-terminal 12 aa]	0.7723 ± 0.0025	0.217 ± 0.0084
TYMLNGPAGLLM [YNL165W C-terminal 12 aa]	0.6979 ± 0.0034	0.684 ± 0.024
TYSTLINIDVSL [NIC96 C-terminal 12 aa]	0.702 ± 0.059	0.688 ± 0.046
VAEKIPENETTH [ISW1 C-terminal 12 aa]	0.6915 ± 0.0016	0.679 ± 0.031
VAPKPKTKQEKK [WRS1 C-terminal 12 aa]	0.684 ± 0.0071	0.658 ± 0.022
VDGFNDALQLSK [HEM14 C-terminal 12 aa]	0.685 ± 0.022	0.708 ± 0.026
VDMTSIFDFMLN [POL1 C-terminal 12 aa]	0.7408 ± 0.0055	0.709 ± 0.025
VDTILDEDFLLR [APC11 C-terminal 12 aa]	0.715 ± 0.016	0.712 ± 0.013
VEHRYHKSVSRL [YBR012C C-terminal 12 aa]	0.816 ± 0.046	0.759 ± 0.053
VENEDEPLFIER [INP51 C-terminal 12 aa]	0.708 ± 0.0089	0.683 ± 0.0088
VENTTVDFNYDM [YLR179C C-terminal 12 aa]	0.69 ± 0.016	0.681 ± 0.03
VFKSKCKKIYIG [DGR1 C-terminal 12 aa]	0.7125 ± 0.0067	0.457 ± 0.04
VFNNISLNFYIQ [YLL020C C-terminal 12 aa]	0.782 ± 0.059	0.692 ± 0.0021
VGFCGLYYYFRK [YPR195C C-terminal 12 aa]	0.647 ± 0.018	0.648 ± 0.015
VIIKVFIRRSDA [YJL086C C-terminal 12 aa]	0.515 ± 0.024	0.461 ± 0.014
VIPHRGKKPVQN [AUS1 C-terminal 12 aa]	0.68051 ± 0.00019	0.681 ± 0.037
VKDIHGRIPEML [AXL2 C-terminal 12 aa]	0.6952 ± 0.0058	0.694 ± 0.015
VKEYYKKSDVGR [ATG9 C-terminal 12 aa]	0.7026 ± 0.004	0.66 ± 0.011

Sequence	protein stability index [1]	protein stability index (genetic background: wild type)
VKFVYRQRIALV [YLL037W C-terminal 12 aa]	0.577 ± 0.0095	0.195 ± 0.0078
VKSLQVKKSHLK [CDC12 C-terminal 12 aa]	0.704 ± 0.0088	0.742 ± 0.13
VLGFFKRRSMKI [FRK1 C-terminal 12 aa]	0.72 ± 0.014	0.678 ± 0.018
VLNFFKRRSMRV [KIN4 C-terminal 12 aa]	0.625 ± 0.013	0.634 ± 0.084
VLSVISAVFGLI [PLB1 C-terminal 12 aa]	0.674 ± 0.016	0.672 ± 0.045
VLTAGVNSVAIK [RPN11 C-terminal 12 aa]	0.6646 ± 0.0021	0.63 ± 0.0097
VLVCFQTFILLQ [YDL032W C-terminal 12 aa]	0.152 ± 0.012	0.162 ± 0.0082
VMLFSSNHQALG [MAG2 C-terminal 12 aa]	0.704 ± 0.014	0.693 ± 0.014
VNFDIEEEQEGQ [JJJ3 C-terminal 12 aa]	0.685 ± 0.011	0.791 ± 0.071
VRKGQEKSKKHS [SEI1 C-terminal 12 aa]	0.678 ± 0.01	0.737 ± 0.06
VRVPKKSKKLKK [PDR10 C-terminal 12 aa]	0.7169 ± 0.0069	0.705 ± 0.012
VSKELRSRDLLD [RPE1 C-terminal 12 aa]	0.68 ± 0.027	0.699 ± 0.0075
VSNNLIIDEETF [BIM1 C-terminal 12 aa]	0.7174 ± 0.0056	0.7214 ± 0.0042
VSSLRKHGEHYS [TRM82 C-terminal 12 aa]	0.704 ± 0.021	0.6079 ± 0.0053
VTSIMDMPISRE [MVP1 C-terminal 12 aa]	0.685 ± 0.019	0.684 ± 0.019
VTSKSALESIFP [YGP1 C-terminal 12 aa]	0.73 ± 0.0083	0.678 ± 0.031
VVLSYSMVGSVM [MAY24 C-terminal 12 aa]	0.4645 ± 0.0021	0.474 ± 0.026
VVVCRLHFSLPV [YKL111C C-terminal 12 aa]	0.562 ± 0.0059	0.57 ± 0.012
VVYYHMVCKNIT [YHR125W C-terminal 12 aa]	0.5662 ± 0.0017	0.573 ± 0.038
VWNTFYKLGKRV [TMT1 C-terminal 12 aa]	0.7048 ± 0.0066	0.6583 ± 0.0029
VYDYQYIYKGKQ [SIA1 C-terminal 12 aa]	0.701 ± 0.016	0.698 ± 0.016

Sequence	protein stability index [1]	protein stability index (genetic background: wild type)
VYTSKTRYRFAV [YHR210C C-terminal 12 aa]	0.7137 ± 0.0024	0.578 ± 0.012
WEHLHSGFSKNK [ELG1 C-terminal 12 aa]	0.723 ± 0.012	0.716 ± 0.019
WKKFLKFSKGSD [HXT17 C-terminal 12 aa]	0.696 ± 0.0084	0.703 ± 0.099
WKQGGGDFRTKK [RBA50 C-terminal 12 aa]	0.709 ± 0.022	0.667 ± 0.033
WLDCTTLPNYQG [KAP122 C-terminal 12 aa]	0.7222 ± 0.0061	0.707 ± 0.028
WNLQTLAADDAF [RPB11 C-terminal 12 aa]	0.765 ± 0.03	0.729 ± 0.049
WYNPSNQTYKSK [YLR222C-A C-terminal 12 aa]	0.719 ± 0.038	0.727 ± 0.071
YAVSELEGPMLD [CSC1 C-terminal 12 aa]	0.7 ± 0.016	0.6479 ± 0.0011
YCLFEKPTETTN [ALG9 C-terminal 12 aa]	0.736 ± 0.029	0.695 ± 0.061
YDYNSKNSRGFY [DEF1 C-terminal 12 aa]	0.6999 ± 0.0051	0.676 ± 0.033
YFKETLYKLANE [HIS5 C-terminal 12 aa]	0.687 ± 0.023	0.705 ± 0.085
YFLAERERINNH [PEX4 C-terminal 12 aa]	0.721 ± 0.0079	0.694 ± 0.01
YGCIALTVVFIL [YAR069C C-terminal 12 aa]	0.232 ± 0.0061	0.223 ± 0.0052
YISKAGSYEVRY [APM4 C-terminal 12 aa]	0.68349 ± 0.00019	0.666 ± 0.03
YKASGSYLEKYF [YPK3 C-terminal 12 aa]	0.7123 ± 0.0023	0.6863 ± 0.00092
YKKVQWAKVLEQ [SFG1 C-terminal 12 aa]	0.709 ± 0.022	0.7255 ± 0.0061
YKLFKFLTRERS [BNA4 C-terminal 12 aa]	0.7081 ± 0.0051	0.657 ± 0.018
YKNKVGVGIPFI [STE14 C-terminal 12 aa]	0.728 ± 0.019	0.7065 ± 0.0057
YKQVSSHNSHSQ [CUP2 C-terminal 12 aa]	0.68 ± 0.034	0.691 ± 0.014
